Test results from patent US20150275192.

Legend:
[1] = molecular target: L1-CAM (CD171) extracellular domain (UniProt P32004); assay: FP; details: 5' DNA primer fd; remainder A = alpha-thio-dA, C = gemcitabine (2',2'-difluoro-dC), G = FANA-G, T = floxuridine (5-fluoro-dU); exact value only in figure
[2] = molecular target: T1, CD30 extracellular domain (UniProt P28908); assay: FP; details: 5' DNA primer fd; remainder A = alpha-thio-dA, C = gemcitabine (2',2'-difluoro-dC), G = FANA-G, T = floxuridine (5-fluoro-dU); exact value only in figure
T1 sequence: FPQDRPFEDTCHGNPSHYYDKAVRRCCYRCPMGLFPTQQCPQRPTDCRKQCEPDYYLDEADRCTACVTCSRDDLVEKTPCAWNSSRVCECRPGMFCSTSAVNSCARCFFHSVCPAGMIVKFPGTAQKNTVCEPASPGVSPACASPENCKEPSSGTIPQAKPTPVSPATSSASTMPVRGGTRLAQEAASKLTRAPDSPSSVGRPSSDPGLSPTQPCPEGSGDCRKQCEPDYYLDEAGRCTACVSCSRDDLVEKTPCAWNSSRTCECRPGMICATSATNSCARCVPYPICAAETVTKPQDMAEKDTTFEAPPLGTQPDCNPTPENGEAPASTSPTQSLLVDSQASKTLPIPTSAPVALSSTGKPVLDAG

Chain of L1-CAM (CD171) extracellular domain (P32004 20-1120): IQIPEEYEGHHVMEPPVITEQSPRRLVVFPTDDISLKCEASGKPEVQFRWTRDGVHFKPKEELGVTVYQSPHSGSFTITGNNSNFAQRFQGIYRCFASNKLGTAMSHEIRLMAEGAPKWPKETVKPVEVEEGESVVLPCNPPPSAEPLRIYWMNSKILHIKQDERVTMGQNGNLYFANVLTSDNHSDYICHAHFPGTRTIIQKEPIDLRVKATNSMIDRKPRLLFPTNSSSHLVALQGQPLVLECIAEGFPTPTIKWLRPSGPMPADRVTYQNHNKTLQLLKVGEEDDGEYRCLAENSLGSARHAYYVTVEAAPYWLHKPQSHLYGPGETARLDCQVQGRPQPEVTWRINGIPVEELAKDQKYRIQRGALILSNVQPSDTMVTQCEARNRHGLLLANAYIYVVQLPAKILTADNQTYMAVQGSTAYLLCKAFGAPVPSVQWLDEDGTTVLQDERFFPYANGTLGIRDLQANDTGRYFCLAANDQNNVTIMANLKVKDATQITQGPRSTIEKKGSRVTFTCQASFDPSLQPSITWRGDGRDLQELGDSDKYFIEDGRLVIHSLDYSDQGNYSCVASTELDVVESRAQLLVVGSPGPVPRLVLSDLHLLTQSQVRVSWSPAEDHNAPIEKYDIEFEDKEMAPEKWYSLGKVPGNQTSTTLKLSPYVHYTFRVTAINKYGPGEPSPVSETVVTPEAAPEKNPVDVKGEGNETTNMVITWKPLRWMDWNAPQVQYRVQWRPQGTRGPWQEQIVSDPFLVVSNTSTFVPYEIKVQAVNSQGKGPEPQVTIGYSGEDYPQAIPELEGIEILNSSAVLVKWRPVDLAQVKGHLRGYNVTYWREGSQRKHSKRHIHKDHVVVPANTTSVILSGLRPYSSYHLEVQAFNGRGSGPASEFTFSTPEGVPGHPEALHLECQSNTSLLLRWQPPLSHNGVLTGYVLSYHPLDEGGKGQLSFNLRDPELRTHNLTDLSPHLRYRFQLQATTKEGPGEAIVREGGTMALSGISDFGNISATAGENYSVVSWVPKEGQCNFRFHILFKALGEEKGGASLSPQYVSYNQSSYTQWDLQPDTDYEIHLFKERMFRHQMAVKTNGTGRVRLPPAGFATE

Row | Sequence | Kd [1] [nM] | Kd [2] [nM]
1 | CCCCTTATTAGCGTTTGCCAACGACGCGACGCCGTTCAACCAGATATTGAAGCAGAACGCAAAAAGA [L1-CAM_Icore] | < 100 | 
2 | CCCCTTATTAGCGTTTGCCATTTCATGGTATTGATAAAGCTGTTGCCGATACTTGGAACAATTTCT [CD30_I30] |  | < 100
3 | CCCCTTATTAGCGTTTGCCATAGATGTGGTAGAAGTCGTCATTTGGCGAGAAAGCTCAGTCTCAGG [L1-CAM_I6] | < 100 | 
4 | CCCCTTATTAGCGTTTGCCATAGATGTGGTAGAAGTCGTCATTTGGCGAGAAAGCTCAGTCTCAGG [CD30_I3] |  | > 100
5 | CCCCTTATTAGCGTTTGCCAGCGACGCCGTTCAACCAGATATTGAAGCAGAACGCAAAAAGAGAGATGAGATTGAGGCT [L1CAM_I1] | < 100 | 
